Source: patent publication US11499162B2, “Plants having increased tolerance to herbicides” (BASF SE, priority 2016, dated 2022)

B1: Q71LV91AL92V: mutated TriA variant of SEQ ID NO: 2 (protein)
chain: MQTLSIQHGTLVTMDQYRRVLGDSWVHVQDGRIVALGVHAESVPPPADRVIDARGKVVLPGFINAHTHVNLILLRGGPSHGRQLYDWLFNAVYPGQKAMRPEDVAVAVRLYCAEAVRSGITTINDNADSAIYPGNIEAAMAVYGEVGVRVVYARMFFDRMDGRIQGYVDALKARSPQVELCSIMEETAVAKDRITALSDQYHGTAGGRISVWPAPAITPAVTVEGMRWAQAFARDRAVMWTLHMAESDHDERLHWMSPAEYMECYGLLDERLQVAHCVYFDRKDVRLLHRHNVKVASQVVSNAYLGSGVAPVPEMVERGMAVGIGTDDGNCNDSVNMIGDMKFMAHIHRAVHRDADVLTPEKILEMATIDGARSLGMDHEIGSIETGKRADLILLDLRHPQTTPHHHLAATIVFQAYGNEVDTVLIDGNVVMENRRLSFLPPERELAFLEEAQSRATAILQRANMVANPAWRSL
modifications: Pseudomonas
B2: L74V: mutated TriA variant of SEQ ID NO: 2 (protein)
chain: MQTLSIQHGTLVTMDQYRRVLGDSWVHVQDGRIVALGVHAESVPPPADRVIDARGKVVLPGFINAHTHVNQILVRGGPSHGRQLYDWLFNVLYPGQKAMRPEDVAVAVRLYCAEAVRSGITTINDNADSAIYPGNIEAAMAVYGEVGVRVVYARMFFDRMDGRIQGYVDALKARSPQVELCSIMEETAVAKDRITALSDQYHGTAGGRISVWPAPAITPAVTVEGMRWAQAFARDRAVMWTLHMAESDHDERLHWMSPAEYMECYGLLDERLQVAHCVYFDRKDVRLLHRHNVKVASQVVSNAYLGSGVAPVPEMVERGMAVGIGTDDGNCNDSVNMIGDMKFMAHIHRAVHRDADVLTPEKILEMATIDGARSLGMDHEIGSIETGKRADLILLDLRHPQTTPHHHLAATIVFQAYGNEVDTVLIDGNVVMENRRLSFLPPERELAFLEEAQSRATAILQRANMVANPAWRSL
modifications: Pseudomonas
B3: V69L: mutated TriA variant of SEQ ID NO: 2 (protein)
chain: MQTLSIQHGTLVTMDQYRRVLGDSWVHVQDGRIVALGVHAESVPPPADRVIDARGKVVLPGFINAHTHLNQILLRGGPSHGRQLYDWLFNVLYPGQKAMRPEDVAVAVRLYCAEAVRSGITTINDNADSAIYPGNIEAAMAVYGEVGVRVVYARMFFDRMDGRIQGYVDALKARSPQVELCSIMEETAVAKDRITALSDQYHGTAGGRISVWPAPAITPAVTVEGMRWAQAFARDRAVMWTLHMAESDHDERLHWMSPAEYMECYGLLDERLQVAHCVYFDRKDVRLLHRHNVKVASQVVSNAYLGSGVAPVPEMVERGMAVGIGTDDGNCNDSVNMIGDMKFMAHIHRAVHRDADVLTPEKILEMATIDGARSLGMDHEIGSIETGKRADLILLDLRHPQTTPHHHLAATIVFQAYGNEVDTVLIDGNVVMENRRLSFLPPERELAFLEEAQSRATAILQRANMVANPAWRSL
modifications: Pseudomonas
B4: Q71LL88AV91AL92VF157L: mutated TriA variant of SEQ ID NO: 2 (protein)
chain: MQTLSIQHGTLVTMDQYRRVLGDSWVHVQDGRIVALGVHAESVPPPADRVIDARGKVVLPGFINAHTHVNLILLRGGPSHGRQLYDWAFNAVYPGQKAMRPEDVAVAVRLYCAEAVRSGITTINDNADSAIYPGNIEAAMAVYGEVGVRVVYARMFLDRMDGRIQGYVDALKARSPQVELCSIMEETAVAKDRITALSDQYHGTAGGRISVWPAPAITPAVTVEGMRWAQAFARDRAVMWTLHMAESDHDERLHWMSPAEYMECYGLLDERLQVAHCVYFDRKDVRLLHRHNVKVASQVVSNAYLGSGVAPVPEMVERGMAVGIGTDDGNCNDSVNMIGDMKFMAHIHRAVHRDADVLTPEKILEMATIDGARSLGMDHEIGSIETGKRADLILLDLRHPQTTPHHHLAATIVFQAYGNEVDTVLIDGNVVMENRRLSFLPPERELAFLEEAQSRATAILQRANMVANPAWRSL
modifications: Pseudomonas
B5: V69S: mutated TriA variant of SEQ ID NO: 2 (protein)
chain: MQTLSIQHGTLVTMDQYRRVLGDSWVHVQDGRIVALGVHAESVPPPADRVIDARGKVVLPGFINAHTHSNQILLRGGPSHGRQLYDWLFNVLYPGQKAMRPEDVAVAVRLYCAEAVRSGITTINDNADSAIYPGNIEAAMAVYGEVGVRVVYARMFFDRMDGRIQGYVDALKARSPQVELCSIMEETAVAKDRITALSDQYHGTAGGRISVWPAPAITPAVTVEGMRWAQAFARDRAVMWTLHMAESDHDERLHWMSPAEYMECYGLLDERLQVAHCVYFDRKDVRLLHRHNVKVASQVVSNAYLGSGVAPVPEMVERGMAVGIGTDDGNCNDSVNMIGDMKFMAHIHRAVHRDADVLTPEKILEMATIDGARSLGMDHEIGSIETGKRADLILLDLRHPQTTPHHHLAATIVFQAYGNEVDTVLIDGNVVMENRRLSFLPPERELAFLEEAQSRATAILQRANMVANPAWRSL
modifications: Pseudomonas
B6: Q71LL88AV91AL92V: mutated TriA variant of SEQ ID NO: 2 (protein)
chain: MQTLSIQHGTLVTMDQYRRVLGDSWVHVQDGRIVALGVHAESVPPPADRVIDARGKVVLPGFINAHTHVNLILLRGGPSHGRQLYDWAFNAVYPGQKAMRPEDVAVAVRLYCAEAVRSGITTINDNADSAIYPGNIEAAMAVYGEVGVRVVYARMFFDRMDGRIQGYVDALKARSPQVELCSIMEETAVAKDRITALSDQYHGTAGGRISVWPAPAITPAVTVEGMRWAQAFARDRAVMWTLHMAESDHDERLHWMSPAEYMECYGLLDERLQVAHCVYFDRKDVRLLHRHNVKVASQVVSNAYLGSGVAPVPEMVERGMAVGIGTDDGNCNDSVNMIGDMKFMAHIHRAVHRDADVLTPEKILEMATIDGARSLGMDHEIGSIETGKRADLILLDLRHPQTTPHHHLAATIVFQAYGNEVDTVLIDGNVVMENRRLSFLPPERELAFLEEAQSRATAILQRANMVANPAWRSL
modifications: Pseudomonas
B7: L88AF157L: mutated TriA variant of SEQ ID NO: 2 (protein)
chain: MQTLSIQHGTLVTMDQYRRVLGDSWVHVQDGRIVALGVHAESVPPPADRVIDARGKVVLPGFINAHTHVNQILLRGGPSHGRQLYDWAFNVLYPGQKAMRPEDVAVAVRLYCAEAVRSGITTINDNADSAIYPGNIEAAMAVYGEVGVRVVYARMFLDRMDGRIQGYVDALKARSPQVELCSIMEETAVAKDRITALSDQYHGTAGGRISVWPAPAITPAVTVEGMRWAQAFARDRAVMWTLHMAESDHDERLHWMSPAEYMECYGLLDERLQVAHCVYFDRKDVRLLHRHNVKVASQVVSNAYLGSGVAPVPEMVERGMAVGIGTDDGNCNDSVNMIGDMKFMAHIHRAVHRDADVLTPEKILEMATIDGARSLGMDHEIGSIETGKRADLILLDLRHPQTTPHHHLAATIVFQAYGNEVDTVLIDGNVVMENRRLSFLPPERELAFLEEAQSRATAILQRANMVANPAWRSL
modifications: Pseudomonas
B8: L74A: mutated TriA variant of SEQ ID NO: 2 (protein)
chain: MQTLSIQHGTLVTMDQYRRVLGDSWVHVQDGRIVALGVHAESVPPPADRVIDARGKVVLPGFINAHTHVNQILARGGPSHGRQLYDWLFNVLYPGQKAMRPEDVAVAVRLYCAEAVRSGITTINDNADSAIYPGNIEAAMAVYGEVGVRVVYARMFFDRMDGRIQGYVDALKARSPQVELCSIMEETAVAKDRITALSDQYHGTAGGRISVWPAPAITPAVTVEGMRWAQAFARDRAVMWTLHMAESDHDERLHWMSPAEYMECYGLLDERLQVAHCVYFDRKDVRLLHRHNVKVASQVVSNAYLGSGVAPVPEMVERGMAVGIGTDDGNCNDSVNMIGDMKFMAHIHRAVHRDADVLTPEKILEMATIDGARSLGMDHEIGSIETGKRADLILLDLRHPQTTPHHHLAATIVFQAYGNEVDTVLIDGNVVMENRRLSFLPPERELAFLEEAQSRATAILQRANMVANPAWRSL
modifications: Pseudomonas
B9: L88AF157I: mutated TriA variant of SEQ ID NO: 2 (protein)
chain: MQTLSIQHGTLVTMDQYRRVLGDSWVHVQDGRIVALGVHAESVPPPADRVIDARGKVVLPGFINAHTHVNQILLRGGPSHGRQLYDWAFNVLYPGQKAMRPEDVAVAVRLYCAEAVRSGITTINDNADSAIYPGNIEAAMAVYGEVGVRVVYARMFIDRMDGRIQGYVDALKARSPQVELCSIMEETAVAKDRITALSDQYHGTAGGRISVWPAPAITPAVTVEGMRWAQAFARDRAVMWTLHMAESDHDERLHWMSPAEYMECYGLLDERLQVAHCVYFDRKDVRLLHRHNVKVASQVVSNAYLGSGVAPVPEMVERGMAVGIGTDDGNCNDSVNMIGDMKFMAHIHRAVHRDADVLTPEKILEMATIDGARSLGMDHEIGSIETGKRADLILLDLRHPQTTPHHHLAATIVFQAYGNEVDTVLIDGNVVMENRRLSFLPPERELAFLEEAQSRATAILQRANMVANPAWRSL
modifications: Pseudomonas
B10: V69A: mutated TriA variant of SEQ ID NO: 2 (protein)
chain: MQTLSIQHGTLVTMDQYRRVLGDSWVHVQDGRIVALGVHAESVPPPADRVIDARGKVVLPGFINAHTHANQILLRGGPSHGRQLYDWLFNVLYPGQKAMRPEDVAVAVRLYCAEAVRSGITTINDNADSAIYPGNIEAAMAVYGEVGVRVVYARMFFDRMDGRIQGYVDALKARSPQVELCSIMEETAVAKDRITALSDQYHGTAGGRISVWPAPAITPAVTVEGMRWAQAFARDRAVMWTLHMAESDHDERLHWMSPAEYMECYGLLDERLQVAHCVYFDRKDVRLLHRHNVKVASQVVSNAYLGSGVAPVPEMVERGMAVGIGTDDGNCNDSVNMIGDMKFMAHIHRAVHRDADVLTPEKILEMATIDGARSLGMDHEIGSIETGKRADLILLDLRHPQTTPHHHLAATIVFQAYGNEVDTVLIDGNVVMENRRLSFLPPERELAFLEEAQSRATAILQRANMVANPAWRSL
modifications: Pseudomonas

Format: biochemical
Conditions: pH 7.2
Summary of the method: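 Expression: BL21(DE3) Gold, pET24d N-His, pGro7, 0.1 mM IPTG, 25° C, 20 h. Reaction: 25 mM Na phosphate pH 7.2, substrate 1 nM to 10 nM, 30° C. Analysis: UPLC-HR-MS; % degradation vs empty vector.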

Molecule	Degradation in % of 6-cyclopentyl-N4-(2,3,4,5,6-pentafluorophenyl)-1,3,5-triazine-2,4-diamine	Degradation in % of Melamine
B1	3%	7%
B2	0%	3%
B3	0%	0%
B4	1%	4%
B5	3%	5%
B6	1%	0%
B7	0%	2%
B8	1%	0%
B9	0%	0%
B10	0%	5%
